To fix the notation:
T1: biotinylated recombinant BH3-tagged mIL-2 (mouse, UniProt P04351 21-169, biotinylated with BirA enzyme (on the tag))
T1 construct: Secreted by Hi5 insect cells and immobilized on an SA sensor chip for SPR; also called biotinylated mouse IL-2; biotinylated IL-2; not shown: BH3 tag
T1 sequence (looked up): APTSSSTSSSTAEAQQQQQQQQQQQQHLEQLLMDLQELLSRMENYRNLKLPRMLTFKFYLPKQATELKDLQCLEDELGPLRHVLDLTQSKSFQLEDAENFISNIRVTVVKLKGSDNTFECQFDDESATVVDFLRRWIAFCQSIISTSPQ

B1: WT (receptor)
CD25 (IL-2Rα) chain: ELCDDDPPEIPHATFKAMAYKEGTMLNCECKRGFRRIKSGSLYMLCTGNSSHSSWDNQCQCTSSATRNTTKQVTPQPEEQKERKTTEMQSPMQPVDQASLPGHCREPPPWENEATERIYHFVVGQMVYYQCVQGYRALHRGPAESVCKMTHGKTRWTQPQLICTGEMETSQFPGEEKPQASPEGRPESETSCLVTTTDFQIQTEMAATMETSIFTTE
notes: also called WT hCD25; wild-type human CD25
B2: B5 (receptor)
CD25 (IL-2Rα) chain: B1 CD25 (IL-2Rα) chain with M25I, N27V, E29D, L42A, I118R, H120W, K153Q
notes: also called B5 hCD25
B3: F5 (receptor)
CD25 (IL-2Rα) chain: B1 CD25 (IL-2Rα) chain with M25L, N27V, L42A, I118N, H120M, K153G
notes: also called F5 hCD25
B4: E8 (receptor)
CD25 (IL-2Rα) chain: B1 CD25 (IL-2Rα) chain with L2Q, M25V, N27Y, L42A, I118R, H120W
notes: also called E8 hCD25
B5: WT (receptor)
CD25 (IL-2Rα) chain: ELCLYDPPEVPNATFKALSYKNGTILNCECKRGFRRLKELVYMRCLGNSWSSNCQCTSNSHDKSRKQVTAQLEHQKEQQTTTDMQKPTQSMHQENLTGHCREPPPWKHEDSKRIYHFVEGQSVHYECIPGYKALQRGPAISICKMKCGKTGWTQPQLTCVDEREHHRFLASEESQGSRNSSPESETSCPITTTDFPQPTETTAMTETFVLTME
notes: also called WT mCD25; wild-type mouse CD25
B6: B4 (receptor)
CD25 (IL-2Rα) chain: B5 CD25 (IL-2Rα) chain with N27E, E29R, V41W, Y42I, M43V, N59T, I114E, H116T
notes: also called B4 mCD25

Changes are numbered by the printed parent chain.

For one test, the target named is T2, biotinylated recombinant BH3-tagged hIL-2 (human, UniProt P60568 21-153, biotinylated with BirA enzyme (on the tag)).
T2 construct: Secreted by Hi5 insect cells and immobilized on an SA sensor chip for SPR; also called biotinylated human IL-2; biotinylated IL-2; not shown: BH3 tag
T2 sequence (P60568 21-153): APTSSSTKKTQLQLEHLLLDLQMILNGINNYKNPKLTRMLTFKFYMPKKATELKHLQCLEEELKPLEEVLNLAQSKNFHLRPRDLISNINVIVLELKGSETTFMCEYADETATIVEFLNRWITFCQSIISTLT
The test is described as follows: SPR (Biacore T100), biotinylated hIL-2 immobilised on an SA chip, soluble CD25 flowed over. The source says:
(§1) FIG. 4A-4B—Sequences and affinities of high affinity CD25 variants. DNA encoding high affinity variants was extracted after clone screens by yeast plasmid minipreps. Sequences for hCD25 (FIG. 4A) and mCD25 (FIG. 4B) clones are aligned with wild-type (WT) CD25. Residues are the same as WT except as noted, and the EAV sequence is not aligned to WT mCD25 due to differences between species. Consensus mutations for hCD25 are highlighted in blue, and deletions are marked by dashes. Affinity measurements for each clone were determined by surface plasmon resonance.
(§2) Surface plasmon resonance (FIG. 4). Sequences of high-affinity CD25 identified from the clone screens were determined by yeast miniprep (Zymo Research), and cloned into pAcBN vectors for expression in Hi5 cells. Soluble high-affinity CD25 proteins were purified by FPLC. Affinity was measured by surface plasmon resonance (Biacore T100), with biotinylated mouse or human IL-2 immobilized on a SA sensor chip (GE Healthcare). CD25 variants were flowed over the chip and the chip was regenerated between runs.
The term Kd denotes a measure of binding affinity in units of concentration. With B1, the Kd was determined as 2 nM.

Turning to B2, the Kd is 0.046 nM.

In the case of B3, the Kd was 0.086 nM.

On to B4, for which the Kd is 0.045 nM.

The next test concerns the target T1, biotinylated recombinant BH3-tagged …. The test can be described thus: SPR (Biacore T100), biotinylated mIL-2 immobilised on an SA chip, soluble CD25 flowed over.
Source text: as §1, §2
In the case of B5, the Kd is 6.9 nM.

For B6, the Kd turned out to be 0.46 nM.

Values taken from US20200385438A1 (Stanford University, published 2020).
